Laboratory results: publication PMC8916002 (Proceedings of the National Academy of Sciences of the …, 2022)
Each block holds one molecule with its values, some of them ahead of it.

Tests used:
JPH1 = assay: Cocrystallization of JPH1 with phospholipids; type: binding, human; settings: high ionic strength
[1] = biological target: T1, MBP-tagged JPH2 (1 to 161, 275 to 437) (human, UniProt Q9BR39-1 1-161; Q9BR39-1 275-437); assay: ITC
T1 chain (looked up): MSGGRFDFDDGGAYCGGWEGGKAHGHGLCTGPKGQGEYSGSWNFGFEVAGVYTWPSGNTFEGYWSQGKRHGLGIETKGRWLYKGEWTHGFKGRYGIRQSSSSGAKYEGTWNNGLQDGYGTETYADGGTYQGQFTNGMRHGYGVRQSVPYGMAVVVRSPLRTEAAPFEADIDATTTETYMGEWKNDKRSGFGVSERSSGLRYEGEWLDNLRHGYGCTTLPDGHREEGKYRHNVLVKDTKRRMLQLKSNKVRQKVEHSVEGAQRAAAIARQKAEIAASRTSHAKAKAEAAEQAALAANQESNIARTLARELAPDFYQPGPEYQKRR

[2] = biological target: T2, JPH1 (1 to 175, 265 to 442) (human, UniProt Q9HDC5 1-175; Q9HDC5 265-442); assay: ITC
T2 chain (looked up): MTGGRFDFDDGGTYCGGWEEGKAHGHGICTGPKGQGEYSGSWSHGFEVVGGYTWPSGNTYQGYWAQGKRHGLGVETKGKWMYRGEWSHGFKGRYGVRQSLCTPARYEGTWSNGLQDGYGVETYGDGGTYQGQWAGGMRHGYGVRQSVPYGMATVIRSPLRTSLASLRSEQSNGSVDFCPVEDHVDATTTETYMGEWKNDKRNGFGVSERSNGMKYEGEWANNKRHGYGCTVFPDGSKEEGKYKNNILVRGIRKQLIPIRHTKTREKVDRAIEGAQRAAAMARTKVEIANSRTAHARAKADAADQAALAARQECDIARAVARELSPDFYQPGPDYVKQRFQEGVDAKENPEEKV

[3] = biological target: T3, JPH2 (1 to 161, 275 to 437) (human, UniProt Q9BR39-1 1-161; Q9BR39-1 275-437); assay: ITC
T3 chain (looked up): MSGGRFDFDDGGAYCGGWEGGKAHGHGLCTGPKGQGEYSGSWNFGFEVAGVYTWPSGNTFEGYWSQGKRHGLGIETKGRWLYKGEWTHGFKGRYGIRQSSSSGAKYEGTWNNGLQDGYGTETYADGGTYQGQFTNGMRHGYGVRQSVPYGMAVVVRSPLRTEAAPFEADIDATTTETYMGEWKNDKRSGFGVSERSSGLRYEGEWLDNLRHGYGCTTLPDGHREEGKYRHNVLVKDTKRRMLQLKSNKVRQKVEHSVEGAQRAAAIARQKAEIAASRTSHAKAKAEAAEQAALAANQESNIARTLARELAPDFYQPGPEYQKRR

Molecule: CCCCCCCC(=O)OC[C@H](COP(=O)(O)O[C@@H]1[C@H](O)[C@H](O)[C@@H](OP(=O)(O)O)[C@H](OP(=O)(O)O)[C@H]1O)OC(=O)CCCCCCC [8:0 PI(4,5)P2]
- ligand electron density in JPH1 crystals (JPH1; 500 μM 8:0 PI(4,5)P2, diffraction data to 2.0 Å): no significant difference density could be identified

Molecule: CCCCCC(=O)OC[C@H](COP(=O)(O)OC[C@H](N)C(=O)O)OC(=O)CCCCC [6:0 PS]
- ligand electron density in JPH1 crystals (JPH1; 2 mM 6:0 PS, diffraction data to 1.9 Å): no significant difference density could be identified
- ligand electron density in JPH1 crystals (JPH1; 2 mM 6:0 PS, diffraction data to 1.9 Å, listed as PS): could not observe any density for a bound ligand

- Kd [1]: 1.8 µM
- Kd [2]: 1 to 2 µM
- stoichiometry N [2]: 1
- stoichiometry N [3]: 1
Molecule: EERIFRRTGGLFGQVD (peptide, UniProt P07293 1594-1609, looked up) [CaV1.1 peptide (rabbit CaV1.1 residues 1594 to 1609)]
